Assay results from patent publication US20160116473A1 (KOREA INSTITUTE OF RADIOLOGICAL AND MEDICAL SCIENCES, published 2016).

Molecular target: T1, Signal transducer and activator of transcription 3 (STAT3) (human, UniProt P40763 2-770)
T1 construct: Endogenous protein in cell lysates (co-immunoprecipitation) or in fixed cells and tissues (PLA)
Assay: co-immunoprecipitation from Hep-2 and RR-Hep-2 cell lysates, immunoblot
Description: Cells were lysed with nonyl phenoxypolyethoxylethanol-40 (NP-40), and the lysates were then precipitated with a negative control mouse antibody (Santa Cruz Biotechnology Inc.) or a mouse monoclonal antibody against ERp57 (Santa Cruz Biotechnology Inc.). Afterwards, immune complexes were collected using protein G-Sepharose and washed 3 times, and SDS sample buffer was added thereto. The samples were size-fractionated by electrophoresis.

T1 sequence (P40763 2-770 limits assumed): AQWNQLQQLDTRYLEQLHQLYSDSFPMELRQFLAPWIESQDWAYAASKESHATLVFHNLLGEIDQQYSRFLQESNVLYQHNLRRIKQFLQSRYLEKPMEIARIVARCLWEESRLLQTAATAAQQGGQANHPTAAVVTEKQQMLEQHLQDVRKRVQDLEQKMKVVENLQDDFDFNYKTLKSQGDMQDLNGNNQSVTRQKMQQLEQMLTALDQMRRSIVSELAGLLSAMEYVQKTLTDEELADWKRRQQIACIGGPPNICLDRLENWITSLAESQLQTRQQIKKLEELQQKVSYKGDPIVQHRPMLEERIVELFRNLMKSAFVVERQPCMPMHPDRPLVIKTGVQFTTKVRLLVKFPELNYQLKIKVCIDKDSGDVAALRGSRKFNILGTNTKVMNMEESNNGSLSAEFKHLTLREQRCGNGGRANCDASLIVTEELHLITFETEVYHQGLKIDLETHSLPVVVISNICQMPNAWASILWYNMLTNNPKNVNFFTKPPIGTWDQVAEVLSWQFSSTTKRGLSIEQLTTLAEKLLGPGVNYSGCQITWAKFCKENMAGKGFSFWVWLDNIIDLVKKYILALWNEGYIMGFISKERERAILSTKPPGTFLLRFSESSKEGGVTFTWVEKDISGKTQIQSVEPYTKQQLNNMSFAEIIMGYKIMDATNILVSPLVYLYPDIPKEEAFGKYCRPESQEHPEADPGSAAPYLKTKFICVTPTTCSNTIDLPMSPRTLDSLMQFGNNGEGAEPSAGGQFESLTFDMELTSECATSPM

B1: ERp57 (enzyme, human, UniProt P30101 25-505, looked up)
chain: SDVLELTDDNFESRISDTGSAGLMLVEFFAPWCGHCKRLAPEYEAAATRLKGIVPLAKVDCTANTNTCNKYGVSGYPTLKIFRDGEEAGAYDGPRTADGIVSHLKKQAGPASVPLRTEEEFKKFISDKDASIVGFFDDSFSEAHSEFLKAASNLRDNYRFAHTNVESLVNEYDDNGEGIILFRPSHLTNKFEDKTVAYTEQKMTSGKIKKFIQENIFGICPHMTEDNKDLIQGKDLLIAYYDVDYEKNAKGSNYWRNRVMMVAKKFLDAGHKLNFAVASRKTFSHELSDFGLESTAGEIPVVAIRTAKGEKFVMQEEFSRDGKALERFLQDYFDGNLKRYLKSEPIPESNDGPVKVVVAENFDEIVNNENKDVLIEFYAPWCGHCKNLEPKYKELGEKLSKDPNIVIAKMDATANDVPSPYEVRGFPTIYFSPANKKLNPKKYEGGRELSDFISYLQREATNPPVIQEEKPKKKKKAQEDL
notes: Endogenous protein in cell lysates (co-immunoprecipitation) or in fixed cells and tissues (PLA); also called protein disulfide isomerase family A member 3; PDIA3
binding result: binds
